Reference: the supplement of paper PMC9876800

Test system: peptide library, one residue held at a place counted from the S/T acceptor
Assay: relative phosphorylation of the sub-library (ratio to the mean residue at this position); higher = residue favoured
How it was run: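 Relative sub-library phosphorylation, a ratio to the mean residue at that position, was obtained by phosphorimaging and densitometry of spots on streptavidin membranes. Before capture, purified recombinant kinases were incubated for 90 min under kinase-specific conditions with 50 μM biotinylated degenerate peptide sub-libraries and 50 μM ATP spiked with γ-32P-ATP. Each sub-library fixed one residue at one position around a central Ser/Thr.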

Sequence of TTBK2, construct: aa1-450, human (Q6IQ55 1-450, looked up): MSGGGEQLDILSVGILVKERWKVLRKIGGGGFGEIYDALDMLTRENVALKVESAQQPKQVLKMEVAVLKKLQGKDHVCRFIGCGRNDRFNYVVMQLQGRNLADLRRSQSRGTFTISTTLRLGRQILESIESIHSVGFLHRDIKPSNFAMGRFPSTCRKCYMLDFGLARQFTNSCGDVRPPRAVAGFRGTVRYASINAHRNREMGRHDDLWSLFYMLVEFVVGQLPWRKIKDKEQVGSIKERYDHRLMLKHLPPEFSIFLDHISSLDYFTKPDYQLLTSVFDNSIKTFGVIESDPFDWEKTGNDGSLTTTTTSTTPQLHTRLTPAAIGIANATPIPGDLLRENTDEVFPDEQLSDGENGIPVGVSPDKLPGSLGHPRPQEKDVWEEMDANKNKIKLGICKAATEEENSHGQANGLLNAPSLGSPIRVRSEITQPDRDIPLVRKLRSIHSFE
Sequence of MARK2, construct: Full length, human (Q7KZI7 whole entry, looked up): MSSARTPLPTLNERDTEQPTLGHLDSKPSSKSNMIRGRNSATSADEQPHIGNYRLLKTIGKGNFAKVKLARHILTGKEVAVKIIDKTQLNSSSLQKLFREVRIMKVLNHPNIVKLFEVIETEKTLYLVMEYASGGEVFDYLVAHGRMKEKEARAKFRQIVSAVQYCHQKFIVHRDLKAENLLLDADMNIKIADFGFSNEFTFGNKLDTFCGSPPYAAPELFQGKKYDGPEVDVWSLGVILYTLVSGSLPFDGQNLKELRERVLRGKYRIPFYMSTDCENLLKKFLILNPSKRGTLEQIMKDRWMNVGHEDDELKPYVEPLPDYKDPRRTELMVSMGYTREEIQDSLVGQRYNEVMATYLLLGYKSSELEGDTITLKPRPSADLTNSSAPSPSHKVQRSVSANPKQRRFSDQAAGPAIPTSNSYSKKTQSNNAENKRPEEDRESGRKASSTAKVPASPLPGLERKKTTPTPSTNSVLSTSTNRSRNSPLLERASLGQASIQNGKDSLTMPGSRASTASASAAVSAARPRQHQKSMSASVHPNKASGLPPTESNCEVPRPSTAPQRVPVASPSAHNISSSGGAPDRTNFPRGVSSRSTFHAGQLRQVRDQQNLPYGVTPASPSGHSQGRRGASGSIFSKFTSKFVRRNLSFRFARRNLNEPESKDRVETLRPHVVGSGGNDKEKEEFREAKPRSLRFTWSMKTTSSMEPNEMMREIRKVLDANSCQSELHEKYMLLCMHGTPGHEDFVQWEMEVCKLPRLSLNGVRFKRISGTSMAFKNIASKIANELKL

TTBK2, construct: aa1-450, human (from UniProt Q6IQ55)
relative phosphorylation
Conditions	at +1	at +2	at +3	at +4	at -1	at -2	at -3	at -4	at -5
A fixed	0.693	1.88	1.11	1.02	0.912	1.25	0.986	0.998	1.03
D fixed	0.298	0.221	0.968	0.919	0.604	1.91	1.38	1.34	0.944
E fixed	0.913	0.22	1.42	0.928	0.64	1.36	1.2	1.08	0.905
F fixed	1.38	0.907	1.07	0.85	0.951	0.802	0.844	1.11	1.08
G fixed	0.29	0.615	1.21	1.17	0.563	0.964	1.19	1.18	1.28
H fixed	0.878	1.48	1.09	0.983	1.05	0.867	1.18	0.996	1.03
I fixed	1.72	1.07	1.01	0.853	1.24	0.742	0.949	0.881	0.99
K fixed	0.739	0.913	0.707	0.996	1.32	0.67	0.884	1.12	1.15
L fixed	1.5	0.733	1.03	0.822	1.12	1.29	0.807	0.811	0.699
M fixed	1.52	1.38	1.1	1	1.14	0.853	0.972	0.859	0.827
N fixed	0.329	0.553	0.594	0.92	0.942	1.07	1.04	0.841	0.847
P fixed	0.115	0.31	0.495	1.24	0.805	1.35	0.834	0.837	0.981
Q fixed	1.03	0.57	1	0.858	0.741	0.994	0.879	0.818	0.771
R fixed	1.1	1.8	0.801	1.29	1.71	0.743	1.13	1.06	1.41
V fixed	1.42	0.908	1.07	0.75	1.12	0.81	0.75	0.898	0.937
W fixed	1.45	1.91	1.1	1.4	0.93	0.69	0.885	1.08	0.946
Y fixed	1.63	1.54	1.23	0.998	1.22	0.643	1.09	1.1	1.18
pThr fixed	0.576	0.426	0.831	0.97	0.7	2.61	1.78	1.55	1.02
pTyr fixed	1.7	5.77	1.16	0.752	1.02	2.59	2.62	1.84	1.77

MARK2, construct: Full length, human (from UniProt Q7KZI7)
relative phosphorylation
Conditions	at +1	at +2	at +3	at +4	at -1	at -2	at -3	at -4	at -5
A fixed	0.661	0.734	0.723	0.42	1.08	2	0.814	1.24	1.05
D fixed	0.564	0.774	2.49	0.401	0.73	0.399	0.458	0.956	0.844
E fixed	0.799	1.09	0.957	0.353	0.654	0.338	0.52	0.924	0.899
F fixed	0.754	0.856	0.934	0.625	0.534	1.35	0.897	0.947	1.07
G fixed	0.6	0.488	0.517	0.388	2.43	1.32	0.775	1.16	0.977
H fixed	0.796	1.06	1.35	0.44	0.834	1.29	1.3	1.11	0.947
I fixed	1.16	0.984	0.682	3.42	0.568	0.511	0.548	0.635	0.932
K fixed	0.738	0.476	0.474	0.271	1.45	0.982	1.86	1.3	1.16
L fixed	1.22	1.16	0.965	5.46	0.755	0.456	0.56	0.727	1.51
M fixed	2.28	1.12	0.896	1.64	0.936	0.711	0.911	0.911	1.11
N fixed	1.12	1.15	2.48	0.37	1.05	0.698	0.734	1.01	0.846
P fixed	0.387	0.616	0.222	0.3	1.24	0.475	0.839	0.884	0.759
Q fixed	1.81	1.2	0.956	0.263	1.26	0.619	0.785	0.933	0.8
R fixed	0.846	0.624	0.454	0.192	1.21	0.926	3.26	1.35	1.3
V fixed	1.52	1.02	0.675	1.55	0.831	0.677	0.544	0.687	0.754
W fixed	0.852	2.63	1.14	0.444	0.674	2.61	1.36	1.28	1.14
Y fixed	0.898	1.02	1.08	0.464	0.77	1.64	0.842	0.947	0.909
pThr fixed	1.29	0.81	0.381	0.287	0.37	0.438	0.518	0.756	0.656
pTyr fixed	0.584	0.583	0.681	0.283	0.688	0.498	0.656	0.746	0.791
